Experimental data published in publication PMC3784511.

Molecular target: T1, NF-kB p50 homodimer (UniProt P19838)
T1 sequence: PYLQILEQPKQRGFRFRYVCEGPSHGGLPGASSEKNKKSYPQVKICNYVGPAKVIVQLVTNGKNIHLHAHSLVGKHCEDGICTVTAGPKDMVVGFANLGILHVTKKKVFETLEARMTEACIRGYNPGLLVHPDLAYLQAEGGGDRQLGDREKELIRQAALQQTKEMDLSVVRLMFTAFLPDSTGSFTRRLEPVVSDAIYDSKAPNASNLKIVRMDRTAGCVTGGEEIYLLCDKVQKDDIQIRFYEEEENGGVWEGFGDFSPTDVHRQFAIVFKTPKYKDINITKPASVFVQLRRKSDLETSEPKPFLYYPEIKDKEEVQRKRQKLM
Test: UV laser footprinting
Settings: 10 mM Tris pH 7.4, 75 mM NaCl, 1 mM EDTA, 1 mM DTT, 100 ug/ml BSA, 0.01% NP40 (omitted in dilution experiments), 5% glycerol, 37 C; naked DNA supplemented with …

GCTCGGAATTCTATCCGACTGGCACCGGCAAGGTCGCTGTTCAATACATGCACAGGATGTATATATCTGACACGTGCCTGGAGACTAGGTAGTAATTCTCTTGGCGGTTAAAACGCGGTGTACAGCGCGTACGTGCGTTTAAGCGGTGCTAGAGCTTGCTACGACCAATTGAGCGGCCTCGGCACGGGGATTCCCCAGGTCGGCCGCGTATAGTGTCCATCACATAAGTGATGAACTCGGTCTTAAGAATCATGC (double strand) [601_D7 DNA (255 bp)]
Kd: 14 nM
